The target of experiment [1] is Porcine pancreatic lipase (porcine) (UniProt P00591).
Experiment [2] has the same target. This is another data set of the same source.
For experiment [3] the target is unchanged. This is another data set of the same source.
The target is the same in experiment [4]. This is another data set of the same source.

The record followed here is patent US5376640A, “Lipolytic enzyme inhibitors” (Nisshin Flour Milling Co., Ltd., priority 1989, dated 1994).

As for β-purothionin (SEQ ID NO:3) (peptide), the Activity of porcine pancreatic lipase (%) in experiment [1] was 0 % of control. In addition, in experiment [2], the Activity of porcine pancreatic lipase (%), Tris buffer was 1.3 % of control. In experiment [3], this substance returned an Activity of porcine pancreatic lipase, solution diluted to 0.2 mg/ml of 0%. The Activity of porcine pancreatic lipase, separate experiment at 0.04 mg/ml in experiment [4] amounted to 5.2%.
